Experimental data: the supplement of paper PMC7877785
± gives the uncertainty stated by the source.

Assay: self-splicing fitness, log relative to wild type (ln ratio); higher = more splicing; Tetrahymena group I intron in knt gene, E. coli kanamycin selection, DiMSum; sequences stand for … in CUCUCU…GGAGGGAAAAGUUAUCAGGCAUGCACCUGGUAGCUAGUCUUUAAACCAAUAGAUUGCAUCGGUUUAAAAGGCAAGACCGUCAAAUUGCGGGAAAGGGGUCAACAGCCGUUCAGUACCAAGUCUCAGGGGAAACUUUGAGAUGGCCUUGCAAAGGGUAUGGUAAUAAGCUGACGGACAUGGUCCUAACCACGCAGCCAAGUCCUAAGUCAACAGAUCUUCUGUUGAUAUGGAUGCAGUUCACAGACUAAAUGUCGGUCGGGGAAGAUGUAUUCUUCUCAUAAGAUAUAGUCGGACCUCUCCUUAAUGGGAGCUAGCGGAUGAAGUGAUGCAACACUGGAGCCGCUGGGAACUAAUUUGUAUGCGAAAGUAUAUUGAUUAGUUUUGGAGUACUCGUGGUCG
Method in brief: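 Pooled colonies went to amplicon sequencing on an Illumina HiSeq 2500 after six replicate transformations. The plates were LB agar with 100 μg/mL carbenicillin, 50 μM IPTG and 0.2% rhamnose, with or without 25 μg/mL kanamycin, incubated overnight at 37°C or 30°C. The E. coli BL21(DE3) library had all eight P1ex-region intron nucleotides randomised, the intron placed in the knt kanamycin-resistance gene on pET-22b(+). DiMSum fitness is the error-weighted combination of replicate fold changes, kanamycin against none, normalised to wild type.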

| Sequence | self-splicing fitness (ln) (30 °C) | self-splicing fitness (ln) (37 °C) |
| --- | --- | --- |
| GUUCAGCAAUAUUACGAAAC | -1.48 ± 0.23 | -0.734 ± 0.22 |
| UCAAAGCAAUAUUACGAGGU | -3.05 ± 0.13 | -2.14 ± 0.14 |
| AUUUAGCAAUAUUACGUUGU | -3.01 ± 0.19 | -2.82 ± 0.27 |
| CCGCAGCAAUAUUACGAAUC | -1.78 ± 0.17 | – |
| CGUCAGCAAUAUUACGCUCC | -1.3 ± 0.15 | -0.786 ± 0.22 |
| UACUAGCAAUAUUACGUUGG | -2.61 ± 0.14 | -0.807 ± 0.15 |
| UCGUAGCAAUAUUACGGGAC | – | -2.5 ± 0.44 |
| AAGCAGCAAUAUUACGACUU | -0.223 ± 0.074 | -0.323 ± 0.086 |
| CCUAAGCAAUAUUACGAGGU | -4.68 ± 0.25 | -3.38 ± 0.18 |
| CUAUAGCAAUAUUACGGUAA | -3.01 ± 0.23 | -1.69 ± 0.18 |
| GUAAAGCAAUAUUACGACAG | -2.12 ± 0.17 | -2.22 ± 0.25 |
| CAGAAGCAAUAUUACGUAUC | – | -3.17 ± 0.24 |
| CCAAAGCAAUAUUACGUCCA | -2.8 ± 0.26 | -2.19 ± 0.3 |
| AAGGAGCAAUAUUACGACCA | – | -1.82 ± 0.31 |
| GCCCAGCAAUAUUACGGGUA | -1.34 ± 0.061 | -0.511 ± 0.06 |
| GGGGAGCAAUAUUACGUCUC | -1.64 ± 0.4 | – |
| CUAUAGCAAUAUUACGAAGG | -1.76 ± 0.13 | -1.72 ± 0.19 |
| CAUCAGCAAUAUUACGAGAG | -1.9 ± 0.072 | -0.955 ± 0.075 |
| UUAAAGCAAUAUUACGUAGC | -4.43 ± 0.3 | -2.96 ± 0.48 |
| CUGCAGCAAUAUUACGAUGC | -3.13 ± 0.24 | -1.92 ± 0.43 |

| Sequence | self-splicing fitness (ln) (30 °C) | self-splicing fitness (ln) (37 °C) |
| --- | --- | --- |
| GCUAAGCAAUAUUACGGCUG | -2.83 ± 0.15 | -2.03 ± 0.18 |
| CCACAGCAAUAUUACGAAAC | -2.27 ± 0.29 | -1.8 ± 0.34 |
| UUCCAGCAAUAUUACGAUUG | -2.03 ± 0.12 | -1.47 ± 0.16 |
| AGUAAGCAAUAUUACGUUUG | -4.38 ± 0.29 | -2.13 ± 0.21 |
| CACCAGCAAUAUUACGGAGG | -1.85 ± 0.078 | -1.4 ± 0.11 |
| GAAUAGCAAUAUUACGCUCU | -1.58 ± 0.12 | -1.4 ± 0.14 |
| AAACAGCAAUAUUACGUGAG | -0.858 ± 0.04 | -0.552 ± 0.064 |
| CGAGAGCAAUAUUACGCCGG | -2.74 ± 0.41 | -1.27 ± 0.45 |
| AGUAAGCAAUAUUACGUUUA | -2.84 ± 0.22 | -1.56 ± 0.18 |
| CCCCAGCAAUAUUACGUCGG | -3.66 ± 0.16 | -2.86 ± 0.33 |
| CCCAAGCAAUAUUACGUGUG | -2.98 ± 0.071 | -3.12 ± 0.094 |
| AUUGAGCAAUAUUACGUUGA | -3.86 ± 0.37 | -3.45 ± 0.3 |
| UCUGAGCAAUAUUACGCACU | -4.18 ± 0.39 | -2.1 ± 0.28 |
| CAGUAGCAAUAUUACGCCUC | -2.93 ± 0.46 | -2.4 ± 0.44 |
| GCGCAGCAAUAUUACGCAAG | -3.82 ± 0.23 | -2.52 ± 0.15 |
| UAAAAGCAAUAUUACGUCCC | -2.74 ± 0.32 | -0.909 ± 0.24 |
| AUGAAGCAAUAUUACGUUAA | -1.51 ± 0.084 | -0.908 ± 0.1 |
| GCUUAGCAAUAUUACGACCG | -1.2 ± 0.26 | -1.19 ± 0.29 |
| ACGUAGCAAUAUUACGCCCA | -0.614 ± 0.12 | -0.952 ± 0.14 |
